For five substances, Kd, dH and stoichiometry N results are on record in paper PMC9304225.

Assay [1] concerns the target RING_(MUL1):UBE2D2 complex (UniProt Q969V5). Put plainly: ITC. For orientation: ITC needs no label: the signal is the heat of the interaction.
Assay [2] concerns the target p53 transactivation domain (residues 1–73) (human) (UniProt P04637). Put plainly: NMR titration.
The target of assay [3] is UBE2D2 (UniProt P62837). Put plainly: ITC.

Values joined by “and” are separate entries in the source; they are usually repeats but may differ in a detail not shown here. Identical values can stand only once.

Chain of RING domain of MUL1 (residues 298–352) (Q969V5 298-352): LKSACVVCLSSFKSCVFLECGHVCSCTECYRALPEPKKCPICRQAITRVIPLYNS
Chain of p53 transactivation domain (residues 1–73) (P04637 1-73): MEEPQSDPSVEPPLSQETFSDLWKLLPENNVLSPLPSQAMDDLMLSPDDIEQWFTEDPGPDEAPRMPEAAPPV
Chain of p53 transactivation domain (residues 1–73) (human) (P04637 1-73): as above

With AD39 peptide (p53 residues 39–57), in assay [1], the Kd (commonly a measure of binding affinity in units of concentration) is 184 µM and 175 µM and 193 µM; the dH was -1.13 kcal/mol and -1.15 kcal/mol and -1.12 kcal/mol; the stoichiometry N (in general, the number of molecules, sites or subunits per partner or assembly) is 0.88 and 0.89 and 0.87.
Substance “RING_(MUL1):UBE2D2 complex (from UniProt Q969V5 298-352; P62837 1-147)” returned a dissociation constant (Kd) in assay [2] of 171 µM.
As to “RING domain of MUL1 (residues 298–352) (from UniProt Q969V5 298-352) (domain or fragment)”, in assay [3], the dissociation constant (Kd) was 43 µM and 28 µM and 13 µM; the dH turned out to be 1.5 kcal/mol.
With “UBE2D2 (from UniProt P62837 1-147) (enzyme)”, in assay [2], the Kd is 735 µM.
On to “p53 transactivation domain (residues 1–73) (from UniProt P04637 1-73) (domain or fragment)”, for which, in assay [1], the equilibrium dissociation constant (Kd) was found to be 111 µM, the dH is -0.673 kcal/mol and the stoichiometry N is 1.01.
